{"source": "IntAct's records for PubMed 24018422", "parents": {"B1": {"name": "Sentrin-specific protease 7 (Homo sapiens), Q9BQF6 (parent)", "chain": "MDKRKLGRRPSSSEIITEGKRKKSSSDLSEIRKMLNAKPEDVHVQSPLSKFRSSERWTLPLQWERSLRNKVISLDHKNKKHIRGCPVTSKSSPERQLKVMLTNVLWTDLGRKFRKTLPRNDANLCDANKVQSDSLPSTSVDSLETCQKLEPLRQSLNLSERIPRVILTNVLGTELGRKYIRTPPVTEGSLSDTDNLQSEQLSSSSDGSLESYQNLNPHKSCYLSERGSQRSKTVDDNSAKQTAHNKEKRRKDDGISLLISDTQPEDLNSGSRGCDHLEQESRNKDVKYSDSKVELTLISRKTKRRLRNNLPDSQYCTSLDKSTEQTKKQEDDSTISTEFEKPSENYHQDPKLPEEITTKPTKSDFTKLSSLNSQELTLSNATKSASAGSTTETVENSNSIDIVGISSLVEKDENELNTIEKPILRGHNEGNQSLISAEPIVVSSDEEGPVEHKSSEILKLQSKQDRETTNENESTSESALLELPLITCESVQMSSELCPYNPVMENISSIMPSNEMDLQLDFIFTSVYIGKIKGASKGCVTITKKYIKIPFQVSLNEISLLVDTTHLKRFGLWKSKDDNHSKRSHAILFFWVSSDYLQEIQTQLEHSVLSQQSKSSEFIFLELHNPVSQREELKLKDIMTEISIISGELELSYPLSWVQAFPLFQNLSSKESSFIHYYCVSTCSFPAGVAVAEEMKLKSVSQPSNTDAAKPTYTFLQKQSSGCYSLSITSNPDEEWREVRHTGLVQKLIVYPPPPTKGGLGVTNEDLECLEEGEFLNDVIIDFYLKYLILEKASDELVERSHIFSSFFYKCLTRKENNLTEDNPNLSMAQRRHKRVRTWTRHINIFNKDYIFVPVNESSHWYLAVICFPWLEEAVYEDFPQTVSQQSQAQQSQNDNKTIDNDLRTTSTLSLSAEDSQSTESNMSVPKKMCKRPCILILDSLKAASVQNTVQNLREYLEVEWEVKLKTHRQFSKTNMVDLCPKVPKQDNSSDCGVYLLQYVESFFKDPIVNFELPIHLEKWFPRHVIKTKREDIRELILKLHLQQQKGSSS"}}}
{"variants_of": "B1", "conditions": "with cbx5_human CBX5, P45973"}
{"variant": "L149A;L152A;L156A;L158A;P163A;V165A", "effect of a mutation on the interaction": "disrupting interaction"}
{"variants_of": "B1", "conditions": "with tif1b_human TRIM28, Q13263"}
{"variant": "L149A;L152A;L156A;L158A;P163A;V165A", "effect of a mutation on the interaction": "disrupting interaction"}
{"variants_of": "B1", "conditions": "with tif1b_human TRIM28, Q13263", "remark": "another data set of the same source"}
{"variant": "C992A", "effect of a mutation on the interaction": "increasing interaction"}
